Source: publication PMC10907282 (Proceedings of the National Academy of Sciences of the …, 2024)

Biological target: purified SOS3 (Arabidopsis thaliana, UniProt O81223 1-222)
Test: other fluorescence titration

purified SOS3, sequence (O81223 whole entry): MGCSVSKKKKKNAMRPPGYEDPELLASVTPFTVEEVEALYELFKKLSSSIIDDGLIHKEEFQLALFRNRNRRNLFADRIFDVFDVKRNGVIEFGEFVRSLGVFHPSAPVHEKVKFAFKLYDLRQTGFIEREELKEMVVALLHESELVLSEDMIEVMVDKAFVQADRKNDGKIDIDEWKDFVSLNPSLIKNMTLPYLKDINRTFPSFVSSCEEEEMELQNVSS

binding result: binds
Binder: KKRILEYTKYEMLNKALRAFQDLGD (peptide, UniProt Q9LKW9 460-484, looked up) [synthetic peptide spanning the S3BD of SOS1, residues K460 to D484]
